Two molecules from patent US12351648B2, “Methods of inhibiting MASP-2 for the treatment and/or prevention of coronavirus-induced acute respiratory distress syndrome” (priority 2020, dated 2025) can be followed below.

The target in this experiment is human MASP-2 (Homo sapiens (Human), UniProt O00187). Description: C3 assay: inhibition of lectin pathway C3 convertase formation in human serum (scFv clones). Type of experiment: biochemical. The conditions noted are these: read-out: 1% human serum C3 assay (IC50 nM), scFv format.
Chain of human MASP-2 (O00187 whole entry, looked up): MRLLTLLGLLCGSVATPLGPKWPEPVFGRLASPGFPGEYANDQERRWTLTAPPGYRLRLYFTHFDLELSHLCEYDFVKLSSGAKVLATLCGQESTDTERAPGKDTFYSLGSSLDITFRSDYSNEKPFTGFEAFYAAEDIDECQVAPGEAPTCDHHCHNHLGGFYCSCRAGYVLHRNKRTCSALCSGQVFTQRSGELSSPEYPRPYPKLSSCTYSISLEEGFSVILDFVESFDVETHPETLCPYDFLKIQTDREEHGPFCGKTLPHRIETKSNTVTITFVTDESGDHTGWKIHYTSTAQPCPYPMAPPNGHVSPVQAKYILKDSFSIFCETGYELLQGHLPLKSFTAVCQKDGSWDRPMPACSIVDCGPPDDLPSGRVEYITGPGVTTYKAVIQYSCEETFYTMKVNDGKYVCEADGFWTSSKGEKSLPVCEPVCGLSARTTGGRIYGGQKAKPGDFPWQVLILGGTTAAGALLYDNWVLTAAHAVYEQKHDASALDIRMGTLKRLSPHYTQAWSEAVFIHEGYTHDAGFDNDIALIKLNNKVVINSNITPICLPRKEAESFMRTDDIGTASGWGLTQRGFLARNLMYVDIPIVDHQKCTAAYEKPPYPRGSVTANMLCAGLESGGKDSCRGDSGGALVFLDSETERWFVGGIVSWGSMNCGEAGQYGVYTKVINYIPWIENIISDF

Description: A functional assay that measures inhibition of lectin pathway C3 convertase formation was used to evaluate the “blocking activity” of the MASP-2 scFv candidate clones. MASP-2 serine protease activity is required in order to generate the two protein components (C4b, C2a) that comprise the lectin pathway C3 convertase. Therefore, a MASP-2 scFv that inhibits MASP-2 functional activity (i.e., a blocking MASP-2 scFv), will inhibit de novo formation of lectin pathway C3 convertase. […]
The scFv clones were each tested in triplicate at the concentration of 2 μg/mL. […] C3c formation was monitored in the presence and absence of the scFv/IgG clones. […]
Normal human serum was diluted to 0.5% in CaMgGVB buffer, and scFv clones or the OMS100 Fab2 positive control were added in triplicates at 0.01 μg/mL; 1 μg/mL (only OMS100 control) and 10 μg/mL to this buffer and preincubated 45 minutes on ice before addition to the blocked ELISA plate. […] C3b deposition was detected with a Rabbit α-Mouse C3c antibody followed by Goat α-Rabbit H1RP. […] The background was determined by carrying out the same assay except that the wells were mannan-free. […]

B1: 17N16mc: mother scFv clone, fully human MASP-2 antibody from phage display (TABLE 8, "all in scFv format") (protein)
scFv: QVQLQQSGPGLVKPSQTLSLTCAISGDSVSSTSAAWNWIRQSPSRGLEWLGRTYYRSKWYNDYAVSVKSRITINPDTSKNQFSLQLNSVTPEDTAVYYCARDPFGVPFDIWGQGTMVTVSSKLSGSASAPKLEEGEFSEARVSYVLTQPPSVSVAPGQTARITCGGNNIGSKNVHWYQQKPGQAPVLVVYDDSDRPSGIPERFSGSNSGNTATLTVSRVEAGDEADYYCQVWDTTTDHVVFGGGTKLTVLAAAGSEQKLISEEDLNSHHHHHH
In the case of B1, the IC50 worked out at 68 nM.

B2: 17D20mc: mother scFv clone, fully human MASP-2 antibody from phage display (TABLE 8, "all in scFv format") (protein)
scFv: QVTLKESGPVLVKPTETLTLTCTVSGFSLSRGKMGVSWIRQPPGKALEWLAHIFSSDEKSYRTSLKSRLTISKDTSKNQVVLTMTNMDPVDTATYYCARIRAGGIDYWGQGTLVTVSSKLSGSASAPKLEEGEFSEARVQPVLTQPPSVSVSPGQTASITCSGDKLGDKFAYWYQQKPGHSPVLVIYQDNKRPSGIPGRFSGSNSGNTATLTISGTQAMDEADYYCQAWDSSTAVFGTGTKVTVLAAAGSEQKLISEEDLNSHHHHHH
Turning to B2, the IC50 was 38 nM.
